# Experiment: label from the status in PepcDB records
row,Sequence,protein production
1,MEESDVLISLIEILKIHQKVIDYDKFKDPEDYTPAIRSLATLELMFEYLIKESNTIFENAAVIVYTIVAKHPFFNGNKRTGYEAMNFIIEDGGYGFTSTDEEMIEFIIRVATTENEMSIEEIKEWIIRHTEKILLEHHHHHH,not failed
2,MAVQENLLLGAKASKNATLTLVFLSILKGVVGFYSGSASLIADAIHTSLDIFTSLAVWIGLKLSMRGSEEKFPYGYYKADNLVSLFVSIIILFSGVELVREALLNIASPVEIKLQGIALGTAVFSVIAMYALSQYKFKVGKQIDSQALIADALHSYTDVFSSLIVAITIIGSLLGVLWLDSAGVLVISLMIFKLGIGMAKDSILTLMDAWLDKDSIERIRQNVGSIQGVKTVDEIRLRKSGLVVFGEIEIEIEGDASLKRVEMLFEEIEKTVKNEVKNLEHLVVNVKPEKISVMKIAVPVLMQEGLHSKVSRHFSKAPYFIFIELENNDIISWDVSENPAAGLEKKKGLKAAEFLKDQGVNVLIAGEIGEAPFHTLRDNFVKLLQMPEEIEDVEQVVKKVSELNTLTAPTE,failed
3,MATLGANASLYSEQHRITYYECDRTGRATLTTLIDIAVLASEDQSDALGLTTEMVQSHGVGWVVTQYAIDITRMPRQDEVVTIAVRGSAYNPYFAYREFWIRDADGQQLAYITSIWVMMSQTTRRIVKILPELVAPYQSEVVKRIPRLPRPISFEATDTTITKPYHVRFFDIDPNRHVNNAHYFDWLVDTLPATFLLQHDLVHVDVRYENEVKYGQTVTAHANILPSEVADQVTTSHLIEVDDEKCCEVTIQWRTLPEPIQ,not failed
4,MKMKSKTKSCCQYTQWVVLALLTLIFASCKDNDDATGDFDPNKPVVISEFSPKEGGLGTRMLLYGENFGSDISKIKVTIGGQDSKVVGAKGKSLYCVVPAKAYDGDIKLSILNDEGEEIANTEANEKFVYQKKMLVTTFLGTMYDGNTKYDLKDGPFDDCGGFGGAVWLSFDPKNHNHLYLVGEQHPTRLIDFEKEYVSTVYSGLSKVRTICWTHEADSMIITNDQNNNDRPNNYILTRESGFKVITELTKGQNCNGAETHPINGELYFNSWNAGQVFRYDFTTQETTPLFTIQDSGWEFHIQFHPSGNYAYIVVVNQHYILRSDYDWKTKRLTTPYIVCGQQGAKDWVDGVGKKARMHAPRQGTFVKNPAYKGSSDEYDFYFCDRENHCIRILTPQGRVTTFAGRGSNGTSGYNDGDLRQEARFNHPEGIVYDEERECFFIGDRENRRIRKIGYEE,failed
5,MEKYFGNAYRGDPGVPHADADRFVNIWIGSAAFSVLTWVNPYMWQLSNQFKYFSLSLSLELSNSNLGTFGFSCLISELGFLFMCFCSSLNCSGENYVLILLV,failed
6,MSLKIAVTGGTGFLGQYVVESIKNDGNTPIILTRSIGNKAINDYEYRVSDYTLEDLINQLNDVDAVVHLAATRGSQGKISEFHDNEILTQNLYDACYENNISNIVYASTISAYSDETSLPWNEKELPLPDLMYGVSKLACEHIGNIYSRKKGLCIKNLRFAHLYGFNEKNNYMINRFFRQAFHGEQLTLHANSVAKREFLYAKDAAKSVIYALKQEKVSGTFNIGSGDALTNYEVANTINNAFGNKDNLLVKNPNANEGIHSSYMDSSKAKELLDFSTDYNFATAVEEIHLLMRGLDDVPLWYEGHHHHHH,not failed
7,MALPRSEDGLVLMWSGGKDAMLALDVLHSQSPRRVGALLTTVTADEERVTMHGTPLSLVERQADALNVPLHVMRVPPQPPNEVYEARLEAALTPLLENGFSTVVAGDLFLDDVRAYREALIESVGATALFPLWGRDTTWLAQRFSTRGYRAVVTAVDTTQLDSSFVGRTYDDSFLEDLPDAVDPCGEKGAFHTFVSDGPPFAASVPVAETGRDTTGRIHTVRLRATGEEA,failed
8,KGDRLGAVVEWQDNTEALRLKAEADARALEESRVAGENARIRSALDNCTTNVMIADNDRRIIYMNHSVTDMLRGAESDLRKALPNFEVRRLIGSTMDEFHKNPAHQRDLLANLRSTYRAEIQVAGRTFSLVANPVFDADGERLGSVVEWKDRTAEVEIEREVSEIVRAASAGE,failed
9,MSELARLRQKVSDGLGLATPAADPADKTTRLANEEHASDVRAVALYVAISLSVGAFAAALIALAVPYAVTVVLACFFGAVLMGALFYALFGKSFPLPGTLPADYSDVRLRQTQNRSLIAEMQESMGDIVVIRNMNRRIVEANRVFREMTGCTSPEGLSCEEIGIAFRPGDRVHAYDVEIATPFGQRIFSWHDVVTRDLASSRLMISSIARDVTEERLALAEREDARLRAEKADAEKARLLATVSHEIRLPLSGMLGMNHLLSQTKLNQEQRNYLDGMKQSGQSLVQLVEDLLDYSTMEAGRFRLNPRAENLRRLIESIVEMLAHRAHEKGIEIASFVTPDVPDYLDFDPARLRQVLFNLIGNAVKFTQVGGVVIRARMVDGELQITVEDTGPGMSEAEQARIFGEFEQAGPLSQRSAGTGLGLAISARIVREFGGNLTVSSRRGEGSTFKLVFRPGRAPAEMPDSGRSHCLQHTNVLLIAPEGVAAAVTMEAIEAFGGKCILIHQPEDLDRLRNEPVSRTADLTDIIVDLRISALFRDALRDWPQQTIRRTLLVSPEERASTTHASFDAWLIRPLREKSLIDVLCGRLRGIERRDAINDNHPDVGFSSRVVERASGVEILVAEDDAVNARIIRAVLEKSGYIVRAVDNFQALQQSVASGASRLPNLIVSDLNMPGGEGLDVLPDLLGKLKDERNIPVIILSGDAGAGTAEILLKAGAGAVLAKPADPRRLVEEIRRLLEAKRVLSS,failed
10,MTFSNQLTILRIILVPVFVLLLMQDSAWYRLLGVIVFVTASLTDIYDGYHARKYGEVTRLGAFLDPLADKLLITTAFLFYVWEGYLALWMVLLVAARDIVVTGLRVYAEHIDHPVVTSKEAKYKTFAQNLFAYVIMLFILLKEKSFFGPKMAAFMEVILHSPWLGYAMFAITLFTVWTGVSYLISNRRLIFRNSAGGR,not failed
11,MSTIIETGKSDFIKVNVSNSHNDAVAFEVKLAKDLTVAQLKTKLEILTGGCAGTMKVQVFKGDTCVSTMDNNDAQLGYYANSDGLRLHVVDSFATFSFDSAPVEKFELSKDQYEQRTDSVRNYLKINRMGKYNDEEMQQAEEKKRLQAEEIQKRAELCVLGGRCEVTVPGNPTRRGTIRYNGPLEGKSGHFIGVEYDEPLGKNNGSFGGKAYFTCAPNYGGFVSPLSVTVGDFPPEDFNMDDEL,failed
12,GEELLPDGVPEEVMESAQPVANEEIVAQLVSMGFSQLHCQKAAINTSNAGVEEAMNWLLSHMDDPDIDAPI,not failed
13,GQSEDGLSVPKPLGIVEPWQMWLQRWVPGQPATELLITRPDLPEKIAALAHKIHSHSVPTTKTHTIATELQILGDRLREFSHQQPQWQTQIQHFIAQSEQLGEVLNKYPRPTTTIHRDFYPDQILVDGNHLWLVDLDLYCKGDPAVDLGNFIAHMTEYSLRTWG,failed
14,MIKVRVASRARAAEGIAQLDLVCAEGRDLPAFEAGAHIDLFLGNGLTRQYSLCSDPAERSFYRIAVLRELTSRGGSAYVHEALTEGATLEISPPRNLFALDETAEEHLLFAGGVGVTPILAMAKRLSALGRAFTFHYCARDRSRAAFLNELSTAPFTSAVRLSFDAEPDTRLDLDVALARPKPGRRLYVCGPGGFMTHVIDGALARGWSGDQIRKEHFAAAPLSAGQDQPFELVIASSGQIVTVAADQTAAQALEAAGVFVPVSCEQGVCGTCLTRVIDGQPDHRDAFQTDEERAANDQFTPCCSRARSPRLVLDL,failed
15,MKKVSIIIPFKGQTEAELMLPLSSIYNQIGVDLSQLDIHLVNDGGKTIDLSKFDVLADRLEIHYHEIPNGGPGVARQYGIDNSISEYIMFIDADDVLYYVGALWPFYNASNQGHQMIRASYWEQIAGNPYTYTVHGNGDRKAAYGKWYKRSYIEMLGLRFMPDLPIYEDTYFVGLACELATDTCFLEEKVYMWLANPNSITRTVENKFNYQAHIYARENRYWFEMIRKWKPECLEHHHHHH,failed
16,MPFLFPKFWVMSAPHDTHVSRRLRRGLASACAVVTAIAAFSPAHAAPSPNKAGPMSGSTGRTTVGQLLTPAGQLTTLGDLPLNEALSPDGRYLIVSNNGQGTQSLQVIKTATGKVVQTIPYKSPESLYMGLAFSPDGTHLFASAAGNHKIRTYHFDCGKLVETSAIQMPVVSPKLTKVNLYPAGLAVTNDSKRLVVADQLADAVSVIDLATNKIQTTHIGHRPVWVTLSKDSTKAFVSSQGGADVAEVDITKSQPLATHKINVGFHPNKSVLTPDGKSLYVANGDADTISVVDVASHRQTATIPVNRNGSKLVGANPTGLALSQDGKRLYVTNSGHNEVAVINAATRKVIGDIPTGWYPTQVLAHDGKLSITSAKGLGAGPNNGPGHPNPTDPRDTAENQYSGSMIKGLLSTVNGMTQRPWPS,failed
17,MNAKEILVHSLRLLENGDARGWCDLFHPEGVLEFPYAPPGWKTRFEGRETIWAHMRLFPEHLTVRFTDVQFYETADPDLAIGEFHGDGVATVSGGKLAQDYISVLRTRDGQILLYRDFWNPLRHLEALGGVEAAAKIVQGA,not failed
18,EAPVRVIVVHGLGTHSGALWPLVAAIEGADLAAIDLPKTPLYDDWLRLLESFISSEDDGRPLILIGAGTGGLLCAEAAHRTGLVAHVIATCLLNPSDQPTRRALFRFSPLTRLIQGRLRNREIPVTRVLNFSKISRSPALSKLCAADEFSGASKITWGFLASYVQHKAKLGAVPVTLMHPDHDLLTPVELSLRTLSRLKAPTDVVMLKDCGHFPIEEPGFTTMLETVTSVIARNS,failed
19,MAGTSQMNNGRSWMQGEKMIPNKDDAEEFANKAKNAVNSGDYDGAIADIERAIKASPRSVPYHLIKADALYRKGDYEDALDVLNFAETIEKNNPELLSLKSICYGSLGKFNESKIEATKAIKADPNYPFAYYNRAKAEQYLEEYDIAKKDLQKYLEMQPNDPDAYMDLADMEYHEGDYKKALQHVNTAIKKDKESTDAHDLKLNILLAQKDIENYLKELLEAFKDTEDFKYIGTLVETLKSVGSFDTAEDILKEFIKIYKDEPFLYDALARVYYDQDRKDDAYRTYEELLKSNDDREAKIYWFDFLLDDGSYDRLIGEIEKSGLKDDEVLEIKYIAEDQKGDHKAALSTADDLLKLDRTPYNTSLYGSQLRKLGRLDESIKALSEFDDDPDVAYELFLAYMDRGDVHSASKYLKTSIENSEDDDDVISNVLEGVSKMMDHSDFQSVNDFLDGLGKENDNLYILTEAMHAINSGVFEGYEKGKEKFLGLDEHKEEVCEFANNIVELTEGKAKAFLEKFIEDNCGENEMEE,failed
20,IYGYVEKATLIDQNLTLSAKLDTGAKSASLHAVNITEIEKKGIPYLRFTVPTKTGDYSFEGEYVGKVKIKVRSSETNPGLLRTTPIKRPVVLLNIKLGDKVRTIKVNLTNRKRFLYPLLLGRDAIIDFNGAVDPALTFTTKSK,not failed
21,MSLHPVSISLSSYGADLVRSRGQASFLPLLAMAGAQRVELREELFAGPPDTEALTAAIQLQGLECVFSSPLELWREDGQLNPELEPTLRRAEACGAGWLKVSLGLLPEQPDLAALGRRLARHGLQLLVENDQTPQGGRIEVLERFFRLAERQQLDLAMTFDIGNWRWQEQAADEAALRLGRYVGYVHCKAVIRNRDGKLVAVPPSAADLQYWQRLLQHFPEGVARAIEYPLQGDDLLSLSRRHIAALARLGQPQEERQHG,not failed
22,MRKARGKAAKGGRAVTGDPIGDAAVLSALFANSPQGLFVFDSEQKVTRYNPAGRGVRGLPEEDVVGQGIADFVPGFEAVELQGLIDEVLATGEALRGRLVRGRAPSGPHRTLAVEVSLFPLRDLGDGKPGLVGVVEDVTE,failed
23,MSITATHDTSSKGRHALPALALLLLMTLSGCAARDMGDGTSPSLMERHATGKSLAPDAPGTPQRQGTPAAEAEAHLQRGLAYLAQDRPELAFEHFSRAASLAPEMVEPRLQRARLLVRRGMPNEAAADIEAVLAASPQHARAWELAGMVAFDRGLLDEAEADFTRAITLDPDLASCYAHLGAVHDYKGRPDLARDVYAAALVRFPQSGELHNNLGVAFSMLGDDASALHHFHEAVVLGASSERSWNNMGLALCRLGRFDEAFEAFRNAGGEAAAHNNLGYFFLVNGDASLAVQHLQRAVELEPRYYVRAAENLKRARLAARFAAGGVPVPAAGPQTGGIAGTPVNKAGVLPPATGKGPGTRTTGAGERVIQ,failed

# Source: a protein production outcome set (Wang et al. 2014)
